T1: lamin A/C 250-400 fragment (C-terminal part of coil 2), wild type, tag-free (human, UniProt P02545 250-400)
T1 sequence (looked up): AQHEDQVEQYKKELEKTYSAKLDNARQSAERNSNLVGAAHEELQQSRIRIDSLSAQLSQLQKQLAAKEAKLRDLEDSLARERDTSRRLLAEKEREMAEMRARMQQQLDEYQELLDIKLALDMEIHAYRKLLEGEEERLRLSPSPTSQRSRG

T2: His-tagged lamin A/C 250-400 fragment, L362C (human, UniProt P02545 250-400, L362C)
T2 sequence (looked up): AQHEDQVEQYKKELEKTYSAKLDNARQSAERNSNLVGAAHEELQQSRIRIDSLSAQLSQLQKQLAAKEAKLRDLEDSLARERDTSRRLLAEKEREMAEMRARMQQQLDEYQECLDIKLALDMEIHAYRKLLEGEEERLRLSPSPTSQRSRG

T3: His-tagged lamin A/C 250-400 fragment, wild type (human, UniProt P02545 250-400)
T3 sequence (looked up): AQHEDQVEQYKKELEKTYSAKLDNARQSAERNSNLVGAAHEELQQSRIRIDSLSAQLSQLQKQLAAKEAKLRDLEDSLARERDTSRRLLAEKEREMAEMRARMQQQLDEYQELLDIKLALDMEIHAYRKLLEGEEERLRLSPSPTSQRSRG

T4: lamin A/C 250-400 fragment, K316C, tag-free (human, UniProt P02545 250-400, K316C)
T4 sequence (looked up): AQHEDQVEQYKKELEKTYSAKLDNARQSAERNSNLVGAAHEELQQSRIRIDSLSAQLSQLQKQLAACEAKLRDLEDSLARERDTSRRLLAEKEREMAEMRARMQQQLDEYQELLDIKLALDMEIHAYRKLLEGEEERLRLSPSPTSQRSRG

T5: lamin A/C 250-400 fragment, Y267C, tag-free (human, UniProt P02545 250-400, Y267C)
T5 sequence (looked up): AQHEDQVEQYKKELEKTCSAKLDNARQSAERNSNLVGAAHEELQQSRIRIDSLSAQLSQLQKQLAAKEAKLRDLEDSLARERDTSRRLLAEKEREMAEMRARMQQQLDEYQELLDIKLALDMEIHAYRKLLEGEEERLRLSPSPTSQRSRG


Legend:
[1] = target: the molecule itself
[2] = target: T1, lamin A/C 250-400 fragment (C-terminal …); assay: pull-down
[3] = target: T2, His-tagged lamin A/C 250-400 fragment, …; assay: pull-down
[4] = target: T3, His-tagged lamin A/C 250-400 fragment, …; assay: pull-down
[5] = target: T4, lamin A/C 250-400 fragment, K316C, …; assay: pull-down
[6] = target: T5, lamin A/C 250-400 fragment, Y267C, …; assay: pull-down

Binder | stoichiometry N [1] | binding result [2] | also measured
His-tagged lamin A/C 1-300 fragment, wild type (domain or fragment, human, UniProt P02545 1-300, looked up) METPSQRRATRSGAQASSTPLSPTRITRLQEKEDLQELNDRLAVYIDRVRSLETENAGLRLRITESEEVVSREVSGIKAAYEAELGDARKTLDSVAKERARLQLELSKVREEFKELKARNTKKEGDLIAAQARLKDLEALLNSKEAALSTALSEKRTLEGELHDLRGQVAKLEAALGEAKKQLQDEMLRRVDAENRLQTMKEELDFQKNIYSEELRETKRRHETRLVEIDNGKQREFESRLADALQELRAQHEDQVEQYKKELEKTYSAKLDNARQSAERNSNLVGAAHEELQQSRIRID | 2 | – | –
His-tagged lamin A/C 1-300 fragment, L59R (domain or fragment, human, UniProt P02545 1-300, looked up) METPSQRRATRSGAQASSTPLSPTRITRLQEKEDLQELNDRLAVYIDRVRSLETENAGRRLRITESEEVVSREVSGIKAAYEAELGDARKTLDSVAKERARLQLELSKVREEFKELKARNTKKEGDLIAAQARLKDLEALLNSKEAALSTALSEKRTLEGELHDLRGQVAKLEAALGEAKKQLQDEMLRRVDAENRLQTMKEELDFQKNIYSEELRETKRRHETRLVEIDNGKQREFESRLADALQELRAQHEDQVEQYKKELEKTYSAKLDNARQSAERNSNLVGAAHEELQQSRIRID | 2 | – | –
His-tagged lamin A/C 1-300 fragment, L35V (domain or fragment, human, UniProt P02545 1-300, looked up) METPSQRRATRSGAQASSTPLSPTRITRLQEKEDVQELNDRLAVYIDRVRSLETENAGLRLRITESEEVVSREVSGIKAAYEAELGDARKTLDSVAKERARLQLELSKVREEFKELKARNTKKEGDLIAAQARLKDLEALLNSKEAALSTALSEKRTLEGELHDLRGQVAKLEAALGEAKKQLQDEMLRRVDAENRLQTMKEELDFQKNIYSEELRETKRRHETRLVEIDNGKQREFESRLADALQELRAQHEDQVEQYKKELEKTYSAKLDNARQSAERNSNLVGAAHEELQQSRIRID | 2 | – | –
His-tagged lamin A/C 1-300 fragment, I63S (domain or fragment, human, UniProt P02545 1-300, looked up) METPSQRRATRSGAQASSTPLSPTRITRLQEKEDLQELNDRLAVYIDRVRSLETENAGLRLRSTESEEVVSREVSGIKAAYEAELGDARKTLDSVAKERARLQLELSKVREEFKELKARNTKKEGDLIAAQARLKDLEALLNSKEAALSTALSEKRTLEGELHDLRGQVAKLEAALGEAKKQLQDEMLRRVDAENRLQTMKEELDFQKNIYSEELRETKRRHETRLVEIDNGKQREFESRLADALQELRAQHEDQVEQYKKELEKTYSAKLDNARQSAERNSNLVGAAHEELQQSRIRID | 2 | – | –
His-tagged lamin A/C 1-300 fragment, Y45C (domain or fragment, human, UniProt P02545 1-300, looked up) METPSQRRATRSGAQASSTPLSPTRITRLQEKEDLQELNDRLAVCIDRVRSLETENAGLRLRITESEEVVSREVSGIKAAYEAELGDARKTLDSVAKERARLQLELSKVREEFKELKARNTKKEGDLIAAQARLKDLEALLNSKEAALSTALSEKRTLEGELHDLRGQVAKLEAALGEAKKQLQDEMLRRVDAENRLQTMKEELDFQKNIYSEELRETKRRHETRLVEIDNGKQREFESRLADALQELRAQHEDQVEQYKKELEKTYSAKLDNARQSAERNSNLVGAAHEELQQSRIRID | 2 | – | –
His-tagged lamin A/C 1-125 fragment, I63S (domain or fragment, human, UniProt P02545 1-125, looked up) METPSQRRATRSGAQASSTPLSPTRITRLQEKEDLQELNDRLAVYIDRVRSLETENAGLRLRSTESEEVVSREVSGIKAAYEAELGDARKTLDSVAKERARLQLELSKVREEFKELKARNTKKEG | – | binds | –
lamin A/C 1-125 fragment, wild type, prey of Fig. 6B (domain or fragment, human, UniProt P02545 1-125, looked up) METPSQRRATRSGAQASSTPLSPTRITRLQEKEDLQELNDRLAVYIDRVRSLETENAGLRLRITESEEVVSREVSGIKAAYEAELGDARKTLDSVAKERARLQLELSKVREEFKELKARNTKKEG | – | – | binding result [3]: binds; binding result [4]: binds
His-tagged lamin A/C 1-125 fragment, L59R (domain or fragment, human, UniProt P02545 1-125, looked up) METPSQRRATRSGAQASSTPLSPTRITRLQEKEDLQELNDRLAVYIDRVRSLETENAGRRLRITESEEVVSREVSGIKAAYEAELGDARKTLDSVAKERARLQLELSKVREEFKELKARNTKKEG | – | binds | –
His-tagged lamin A/C 1-125 fragment, wild type (domain or fragment, human, UniProt P02545 1-125, looked up) METPSQRRATRSGAQASSTPLSPTRITRLQEKEDLQELNDRLAVYIDRVRSLETENAGLRLRITESEEVVSREVSGIKAAYEAELGDARKTLDSVAKERARLQLELSKVREEFKELKARNTKKEG | – | binds | binding result [5]: binds; binding result [6]: binds
His-tagged lamin A/C 1-125 fragment, L35V (domain or fragment, human, UniProt P02545 1-125, looked up) METPSQRRATRSGAQASSTPLSPTRITRLQEKEDVQELNDRLAVYIDRVRSLETENAGLRLRITESEEVVSREVSGIKAAYEAELGDARKTLDSVAKERARLQLELSKVREEFKELKARNTKKEG | – | binds | –
His-tagged lamin A/C 1-125 fragment, Y45C (domain or fragment, human, UniProt P02545 1-125, looked up) METPSQRRATRSGAQASSTPLSPTRITRLQEKEDLQELNDRLAVCIDRVRSLETENAGLRLRITESEEVVSREVSGIKAAYEAELGDARKTLDSVAKERARLQLELSKVREEFKELKARNTKKEG | – | binds | –
